Molecular target: T1, GST-LjBAK1cyt (Lotus japonicus, UniProt A0A2H4NR37)
T1 chain: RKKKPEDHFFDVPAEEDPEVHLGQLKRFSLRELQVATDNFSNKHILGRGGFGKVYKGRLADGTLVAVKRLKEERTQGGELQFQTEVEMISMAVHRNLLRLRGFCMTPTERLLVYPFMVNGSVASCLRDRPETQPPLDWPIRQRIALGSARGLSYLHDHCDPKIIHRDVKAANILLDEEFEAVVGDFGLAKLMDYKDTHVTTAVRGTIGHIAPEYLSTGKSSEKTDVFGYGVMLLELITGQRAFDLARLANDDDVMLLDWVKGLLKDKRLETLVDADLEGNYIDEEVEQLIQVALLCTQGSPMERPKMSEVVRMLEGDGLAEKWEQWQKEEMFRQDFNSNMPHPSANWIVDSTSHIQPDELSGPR
Assay: GST pull-down

B1: HIS-NFR5cyt (protein)
chain: RRKKALNRTASSAETADKLLSGVSGYVSKPNVYEIDEIMEATKDFSDECKVGESVYKANIEGRVVAVKKIKEGGANEELKILQKVNHGNLVKLMGVSSGYDGNCFLVYEYAENGSLAEWLFSKSSGTPNSLTWSQRISIAVDVAVGLQYMHEHTYPRIIHRDITTSNILLDSNFKAKIANFAMARTSTNPMMPKIDVFAFGVLLIELLTGRKAMTTKENGEVVMLWKDMWEIFDIEENREERIRKWMDPNLESFYHIDNALSLASLAVNCTADKSLSRPSMAEIVLSLSFLTQQSSNPTLERSLTSSGLDVEDDAHIVTSITAR
  binding result: binds

Source: PMC6171183 (2018)
